This data set is described as follows: self-splicing fitness, log relative to wild type (ln ratio); higher = more splicing; Tetrahymena group I intron in knt gene, E. coli kanamycin selection, DiMSum; sequences stand for … in CUCUCU…GGAGGGAAAAGUUAUCAGGCAUGCACCUGGUAGCUAGUCUUUAAACCAAUAGAUUGCAUCGGUUUAAAAGGCAAGACCGUCAAAUUGCGGGAAAGGGGUCAACAGCCGUUCAGUACCAAGUCUCAGGGGAAACUUUGAGAUGGCCUUGCAAAGGGUAUGGUAAUAAGCUGACGGACAUGGUCCUAACCACGCAGCCAAGUCCUAAGUCAACAGAUCUUCUGUUGAUAUGGAUGCAGUUCACAGACUAAAUGUCGGUCGGGGAAGAUGUAUUCUUCUCAUAAGAUAUAGUCGGACCUCUCCUUAAUGGGAGCUAGCGGAUGAAGUGAUGCAACACUGGAGCCGCUGGGAACUAAUUUGUAUGCGAAAGUAUAUUGAUUAGUUUUGGAGUACUCGUGGUCG
In a few lines: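 The eight P1ex-region nucleotides of an intron in the knt kanamycin-resistance gene on pET-22b(+) were all randomised and the library put into E. coli BL21(DE3). Six replicate transformations were grown overnight at 37°C or 30°C on LB agar with or without 25 μg/mL kanamycin, together with 100 μg/mL carbenicillin, 50 μM IPTG and 0.2% rhamnose. Colonies were pooled and amplicon-sequenced on an Illumina HiSeq 2500. Fitness from DiMSum is the error-weighted combination of wild-type-normalised replicate fold changes, kanamycin over none.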

± gives the uncertainty stated by the source.

UGACAGCAAUAUUACGCCUU: the “self-splicing fitness (ln)” value was -2.19 ± 0.12 (30 °C) and -1.15 ± 0.12 (37 °C). UGACAGCAAUAUUACGCGGU: the “self-splicing fitness (ln)” value reads like this: (30 °C) -3.56 ± 0.19; (37 °C) -2.68 ± 0.19. For UGACAGCAAUAUUACGCUAU the same measures were -3.7 ± 0.2 and -1.09 ± 0.1. UGACAGCAAUAUUACGCUGG: the “self-splicing fitness (ln)” value was -2.21 ± 0.18 (30 °C) and -1.92 ± 0.33 (37 °C). Turning to UGACAGCAAUAUUACGCUUA, the “self-splicing fitness (ln)” value was -1.26 ± 0.088 (30 °C) and -0.0997 ± 0.094 (37 °C). With UGACAGCAAUAUUACGGCAC, the “self-splicing fitness (ln)” value is -3.55 ± 0.19 (30 °C) and -2.23 ± 0.19 (37 °C). On the same counts, the results for UGACAGCAAUAUUACGGGAA are -1.33 ± 0.12 and -0.827 ± 0.081.

Consider UGACAGCAAUAUUACGGGAU, for which the “self-splicing fitness (ln)” value was -3.3 ± 0.17 (30 °C) and -2.94 ± 0.15 (37 °C). Turning to UGACAGCAAUAUUACGGGCC, the “self-splicing fitness (ln)” value is -3.34 ± 0.22 (30 °C) and -2.23 ± 0.27 (37 °C). In the case of UGACAGCAAUAUUACGGGGA, the “self-splicing fitness (ln)” value is, setting by setting: (30 °C) -1.25 ± 0.087; (37 °C) -1.61 ± 0.12. On to UGACAGCAAUAUUACGGGGC, for which the “self-splicing fitness (ln)” value is -2.96 ± 0.13 (30 °C) and -2.56 ± 0.12 (37 °C). For the sequence UGACAGCAAUAUUACGGGUC, the “self-splicing fitness (ln)” value (30 °C) was -3.81 ± 0.24 and the “self-splicing fitness (ln)” value (37 °C) was -2.94 ± 0.2. For UGACAGCAAUAUUACGGUCA the same measures were -2.97 ± 0.28 and -0.408 ± 0.17. Take UGACAGCAAUAUUACGUAAA: the “self-splicing fitness (ln)” value (30 °C) was -1.01 ± 0.08 and the “self-splicing fitness (ln)” value (37 °C) is -1.26 ± 0.11. As to UGACAGCAAUAUUACGUGAG, the “self-splicing fitness (ln)” value by setting is: (30 °C) -0.267 ± 0.028; (37 °C) -0.365 ± 0.046.

Take UGACAGCAAUAUUACGUUGU: the “self-splicing fitness (ln)” value is -3.48 ± 0.15 (30 °C) and -2.58 ± 0.2 (37 °C). Turning to UGACAGCAAUAUUACGUUUU, the “self-splicing fitness (ln)” value (30 °C) was -2.76 ± 0.11 and the “self-splicing fitness (ln)” value (37 °C) was -1.43 ± 0.098. For UGAGAGCAAUAUUACGAAGG the same measures were -2.94 ± 0.18 and -1.85 ± 0.27.

Consider UGAGAGCAAUAUUACGACGU, for which the “self-splicing fitness (ln)” value runs as follows: (30 °C) -2.66 ± 0.19; (37 °C) -1.78 ± 0.24. With UGAGAGCAAUAUUACGAGAA, for the setting “37 °C”, the “self-splicing fitness (ln)” value was -1.39 ± 0.43.

On to UGAGAGCAAUAUUACGAUUU, for which the “self-splicing fitness (ln)” value is, setting by setting: (30 °C) -2.34 ± 0.17; (37 °C) -2.26 ± 0.27. UGAGAGCAAUAUUACGCACU: the “self-splicing fitness (ln)” value is, setting by setting: (30 °C) -3.11 ± 0.32; (37 °C) -2.02 ± 0.21. Consider UGAGAGCAAUAUUACGCAGC, for which the “self-splicing fitness (ln)” value is, setting by setting: (30 °C) -3.13 ± 0.23; (37 °C) -2.16 ± 0.3. Consider UGAGAGCAAUAUUACGCCAG, for which the “self-splicing fitness (ln)” value reads like this: (30 °C) -3.52 ± 0.42; (37 °C) -2.41 ± 0.35. In the case of UGAGAGCAAUAUUACGCCCA, the “self-splicing fitness (ln)” value (30 °C) is -1.49 ± 0.26. In the case of UGAGAGCAAUAUUACGGACA, the “self-splicing fitness (ln)” value runs as follows: (30 °C) -1.66 ± 0.18; (37 °C) -0.674 ± 0.2.

Regarding UGAGAGCAAUAUUACGGAGG, the “self-splicing fitness (ln)” value was -2.31 ± 0.28 (30 °C) and -1.91 ± 0.3 (37 °C). As for UGAGAGCAAUAUUACGGGCA, the “self-splicing fitness (ln)” value is -0.578 ± 0.12 (30 °C) and -0.806 ± 0.17 (37 °C). Consider UGAGAGCAAUAUUACGGGGG, for which the “self-splicing fitness (ln)” value by setting is: (30 °C) -3.4 ± 0.31; (37 °C) -1.99 ± 0.22. Take UGAGAGCAAUAUUACGGUAG: the “self-splicing fitness (ln)” value was -3.74 ± 0.34 (30 °C) and -2.88 ± 0.38 (37 °C). For UGAGAGCAAUAUUACGUAGC, the “self-splicing fitness (ln)” value (37 °C) was -2.96 ± 0.4. As for UGAGAGCAAUAUUACGUCAA, the “self-splicing fitness (ln)” value (30 °C) is -3.55 ± 0.29 and the “self-splicing fitness (ln)” value (37 °C) is -2.89 ± 0.3. As to UGAGAGCAAUAUUACGUCCG, the “self-splicing fitness (ln)” value reads like this: (30 °C) -1.25 ± 0.23; (37 °C) -1.19 ± 0.42. On to UGAGAGCAAUAUUACGUCUU, for which the “self-splicing fitness (ln)” value runs as follows: (30 °C) -3.18 ± 0.44; (37 °C) -1.9 ± 0.28.

With UGAGAGCAAUAUUACGUGAA, the “self-splicing fitness (ln)” value was -4.19 ± 0.33 (30 °C) and -2.35 ± 0.27 (37 °C).

Take UGAUAGCAAUAUUACGACAA: the “self-splicing fitness (ln)” value (37 °C) was -2.07 ± 0.35. For UGAUAGCAAUAUUACGACGC, the “self-splicing fitness (ln)” value (37 °C) was -3.55 ± 0.29. On to UGAUAGCAAUAUUACGACUC, for which the “self-splicing fitness (ln)” value runs as follows: (30 °C) -3.07 ± 0.21; (37 °C) -1.46 ± 0.18.

As for UGAUAGCAAUAUUACGAGUG, the “self-splicing fitness (ln)” value (30 °C) was -1.14 ± 0.084 and the “self-splicing fitness (ln)” value (37 °C) was -0.545 ± 0.12.

(Values after the supplement of paper PMC7877785.)
